The results in this text go back to article PMC3538638, “On the Molecular Basis of D-Bifunctional Protein Deficiency Type III” (PLoS ONE, 2013).

Data set [1] concerns the molecule itself. Description: static light scattering (SLS); purified recombinant protein; SLS as described previously [3]; the methods name it for the native HsDH protein.
Data set [2] concerns the molecule itself. Description: SEC; Superdex 200 10/300 GL, 20 mM PIPES/HCl pH 6.8, 150 mM NaCl, 1 mM EDTA, 5% glycerol, 1 mM NaN3, 0.3 ml/min; retention times of wild type and variants compared. A general note: In gel filtration, larger molecules generally elute earlier.

B1: wild type 3R-hydroxyacyl-CoA dehydrogenase (DH) fragment of human MFE-2 (multifunctional enzyme type 2) (domain or fragment)
chain: MGSPLRFDGRVVLVTGAGAGLGRAYALAFAERGALVVVNDLGGDFKGVGKGSLAADKVVEEIRRRGGKAVANYDSVEEGEKVVKTALDAFGRIDVVVNNAGILRDRSFARISDEDWDIIHRVHLRGSFQVTRAAWEHMKKQKYGRIIMTSSASGIYGNFGQANYSAAKLGLLGLANSLAIEGRKSNIHCNTIAPNAGSRMTQTVMPEDLVEALKPEYVAPLVLWLCHESCEENGGLFEVGAGWIGKLRWERTLGAIVRQKNHPMTPEAVKANWKKICDFENASKPQSIQESTGSIIEVLSKIDS
notes: 3R-hydroxyacyl-CoA dehydrogenase (DH) fragment of human MFE-2 / D-bifunctional protein; also called HsDH; native HsDH; source: E. coli BL21(DE3)pLysS, pLWRP51::HsDH, purified (Ni-NTA, Superdex 200)
Take B1: in data set [1], the stoichiometry N (usually a count of units in the complex or per binding partner) came out at 2.

B2: HsDH(R248C), patient variant of the 3R-hydroxyacyl-CoA dehydrogenase fragment of human MFE-2 (domain or fragment)
chain: MGSPLRFDGRVVLVTGAGAGLGRAYALAFAERGALVVVNDLGGDFKGVGKGSLAADKVVEEIRRRGGKAVANYDSVEEGEKVVKTALDAFGRIDVVVNNAGILRDRSFARISDEDWDIIHRVHLRGSFQVTRAAWEHMKKQKYGRIIMTSSASGIYGNFGQANYSAAKLGLLGLANSLAIEGRKSNIHCNTIAPNAGSRMTQTVMPEDLVEALKPEYVAPLVLWLCHESCEENGGLFEVGAGWIGKLCWERTLGAIVRQKNHPMTPEAVKANWKKICDFENASKPQSIQESTGSIIEVLSKIDS
notes: Made by site-directed mutagenesis of pLWRP51::HsDH; for the limits see the note of m1; also called R248C variant; source: E. coli BL21(DE3)pLysS, pLWRP51 vector, purified (Ni-NTA, Superdex 200)
B2: the binding result in data set [2] is “binds”.

B3: HsDH(W249G), patient variant of the 3R-hydroxyacyl-CoA dehydrogenase fragment of human MFE-2 (domain or fragment)
chain: MGSPLRFDGRVVLVTGAGAGLGRAYALAFAERGALVVVNDLGGDFKGVGKGSLAADKVVEEIRRRGGKAVANYDSVEEGEKVVKTALDAFGRIDVVVNNAGILRDRSFARISDEDWDIIHRVHLRGSFQVTRAAWEHMKKQKYGRIIMTSSASGIYGNFGQANYSAAKLGLLGLANSLAIEGRKSNIHCNTIAPNAGSRMTQTVMPEDLVEALKPEYVAPLVLWLCHESCEENGGLFEVGAGWIGKLRGERTLGAIVRQKNHPMTPEAVKANWKKICDFENASKPQSIQESTGSIIEVLSKIDS
notes: Made by site-directed mutagenesis of pLWRP51::HsDH; for the limits see the note of m1; also called W249G variant; source: E. coli BL21(DE3)pLysS, pLWRP51 vector, purified (Ni-NTA, Superdex 200)
As for B3, in data set [2], the binding result is recorded as “binds”.

B4: HsDH(T15A), patient variant of the 3R-hydroxyacyl-CoA dehydrogenase fragment of human MFE-2 (domain or fragment)
chain: MGSPLRFDGRVVLVAGAGAGLGRAYALAFAERGALVVVNDLGGDFKGVGKGSLAADKVVEEIRRRGGKAVANYDSVEEGEKVVKTALDAFGRIDVVVNNAGILRDRSFARISDEDWDIIHRVHLRGSFQVTRAAWEHMKKQKYGRIIMTSSASGIYGNFGQANYSAAKLGLLGLANSLAIEGRKSNIHCNTIAPNAGSRMTQTVMPEDLVEALKPEYVAPLVLWLCHESCEENGGLFEVGAGWIGKLRWERTLGAIVRQKNHPMTPEAVKANWKKICDFENASKPQSIQESTGSIIEVLSKIDS
notes: Made by site-directed mutagenesis of pLWRP51::HsDH; for the limits see the note of m1; also called T15A variant; source: E. coli BL21(DE3)pLysS, pLWRP51 vector, purified (Ni-NTA, Superdex 200)
On to B4, for which the binding result in data set [2] was “binds”.

B5: HsDH(N158D), patient variant of the 3R-hydroxyacyl-CoA dehydrogenase fragment of human MFE-2 (domain or fragment)
chain: MGSPLRFDGRVVLVTGAGAGLGRAYALAFAERGALVVVNDLGGDFKGVGKGSLAADKVVEEIRRRGGKAVANYDSVEEGEKVVKTALDAFGRIDVVVNNAGILRDRSFARISDEDWDIIHRVHLRGSFQVTRAAWEHMKKQKYGRIIMTSSASGIYGDFGQANYSAAKLGLLGLANSLAIEGRKSNIHCNTIAPNAGSRMTQTVMPEDLVEALKPEYVAPLVLWLCHESCEENGGLFEVGAGWIGKLRWERTLGAIVRQKNHPMTPEAVKANWKKICDFENASKPQSIQESTGSIIEVLSKIDS
notes: Made by site-directed mutagenesis of pLWRP51::HsDH; for the limits see the note of m1; also called N158D variant; source: E. coli BL21(DE3)pLysS, pLWRP51 vector, purified (Ni-NTA, Superdex 200)
For B5, the binding result in data set [2] is on record as “binds”.

B6: HsDH(E232K), patient variant of the 3R-hydroxyacyl-CoA dehydrogenase fragment of human MFE-2 (domain or fragment)
chain: MGSPLRFDGRVVLVTGAGAGLGRAYALAFAERGALVVVNDLGGDFKGVGKGSLAADKVVEEIRRRGGKAVANYDSVEEGEKVVKTALDAFGRIDVVVNNAGILRDRSFARISDEDWDIIHRVHLRGSFQVTRAAWEHMKKQKYGRIIMTSSASGIYGNFGQANYSAAKLGLLGLANSLAIEGRKSNIHCNTIAPNAGSRMTQTVMPEDLVEALKPEYVAPLVLWLCHESCEKNGGLFEVGAGWIGKLRWERTLGAIVRQKNHPMTPEAVKANWKKICDFENASKPQSIQESTGSIIEVLSKIDS
notes: Made by site-directed mutagenesis of pLWRP51::HsDH; for the limits see the note of m1; also called E232K variant; source: E. coli BL21(DE3)pLysS, pLWRP51 vector, purified (Ni-NTA, Superdex 200)
Regarding B6, the binding result in data set [2] is listed as “binds”.
